The results in this text go back to patent US20190144550A1 (Pfizer, published 2019).

Assay [1] concerns the target T1, Monomeric 8-histidine tagged human EGFRvIII extracellular domain (human, UniProt P00533 298-645).
T1 construct: Analyte in all SPR assays; not shown: 8-histidine tag
Put plainly: SPR, scFv-Fc captured by anti-human Fc, 37 C. On the procedure:
The scFv fragment was then fused to human IgG1 Fc moiety to facilitate recombinant expression and purification. Affinities of the scFv-Fc fusion proteins were measured at 37° C. on a surface plasmon resonance Biacore™ T200 biosensor equipped with an anti-human Fc coupled CM4 sensor chip (GE Healthcare Inc., Piscataway, N.J.) as described above. scFv-Fc proteins were captured by anti-human Fc. Monomeric 8-histidine tagged human EGFRvIII extracellular domain was then injected as the analyte at 10-fold dilution series starting at 1000 nM.

Assay [2] concerns the target T2, 8-histidine tagged recombinant wild-type protein EGFRwt (UniProt P00533 25-645, limits assumed).
T2 construct: not shown: 8-histidine tag
Put plainly: SPR, captured by anti-human Fc, 25 C.

B1: 32A10.HL scFv-Fc protein (Fc fusion)
chain: QVTLKESGPVLVKPTETLTLTCTVSGFSLSNARMGVSWIRQPPGKALEWLAHIFSTDEKSIRRSLRSRLTLSKDTSKSQVVLTMTNMDPVDTATYFCARDSSNYEGYFDYWGQGTLVTVSSGGGGSGGGGSGGGGSGGGGSEVVMTQSPATLSVSPGERVTLSCRASQSVSSNFAWYQQRPGQAPRLLLYGATTRATGLPGRFSGSGSGTENILTISSLQSEDFAIYFCQQYKDWPFTFGPGSKVDIK
notes: HL: heavy-chain variable domain at the N-terminus; not shown: human IgG1 Fc moiety
In assay [1], B1 displayed a Kd of 24.5 nM, a dissociation rate constant (koff) of 0.0012 s⁻¹ and an on-rate (kon) of 47000 M⁻¹ s⁻¹. In assay [2], the binding result is recorded as “no binding (tested: 1000 nM)”.

B2: h62G7-L6/EQ scFv-Fc protein (Fc fusion)
chain: DVVMTQSPLSLPVTLGQPASISCKSSQSLLYSNGKTYLNWFQQRPGQSPRRLIYQVSKLDSGVPDRFSGSGSGTDFTLKISRVEAEDVGVYYCGQDTHFPLTFGGGTKVEIKGGGGSGGGGSGGGGSGGGGSQVQLVQSGAEVKKPGASVKVSCKASGYTFTDYTLHWVRQAPGQGLEWMGGIWPITGGTTYNQKFKGRVTMTRDTSTSTVYMELSSLRSEDTAVYYCARGEAQGSWGQGTLVTVSS
notes: not shown: human IgG1 Fc moiety
For the molecule B2, in assay [1], the dissociation constant Kd is 101 nM, the koff stood at 0.076 s⁻¹ and the kon is 750000 M⁻¹ s⁻¹. Besides, in assay [2], the binding result was “no binding (tested: 1000 nM)”.

B3: 14C11.LH scFv-Fc protein (Fc fusion)
chain: EIVMTQSPATLSVSPGERATLSCRASQSVSNNLAWYQQKPGQAPRLLIYGASTRATGVPARFSGSDSGTEFSLTISSLQSEDFAVYFCQQYKDWPFTFGPGTKVEIKGGGGSGGGGSGGGGSGGGGSQVTLKESGPVLVKPTETLTLTCTVSGFSLNNARMGVSWIRQPPGKALEWFAHIFSTDEKSFRTSLRSRLTLSKDTSKSQVVLTMTNMDPVDTATYYCARDSSNYEGYFDYWGQGILVTVSS
notes: LH: light-chain variable domain at the N-terminus; not shown: human IgG1 Fc moiety
In assay [1], B3 registered a Kd of 136 nM, an off-rate constant (koff) of 0.0065 s⁻¹ and an on-rate (kon) of 48000 M⁻¹ s⁻¹. In assay [2], the binding result was “no binding (tested: 1000 nM)”.

B4: 42G9.LH scFv-Fc protein (Fc fusion)
chain: EVVLTQSPATLSVSPGERATLSCRASQSVRSNLAWYQQKSGQAPRLLIYGSTIRATGVPARFSGSGSGTEFTLTISSLQSEDFAVYYCQQYSDWPFTFGPGTKVDIKGGGGSGGGGSGGGGSGGGGSQVTLKESGPVLLKPTETLTLTCTVSGFSLSNPRMGVSWIRQPPGKALEWFAHIFSTDEKSLKLSLRSRLTLSKDTSKSQVVLTMTNMAPVDSATYYCARDSSNYEGYFDFWGQGTLVTVSS
notes: as for B3
In the case of B4, in assay [1], the Kd came to 22.1 nM, the dissociation rate constant (koff) is 0.00088 s⁻¹ and the kon turned out to be 40000 M⁻¹ s⁻¹. For the same molecule, the binding result in assay [2] is “no binding (tested: 1000 nM)”.

B5: 42G9.HL scFv-Fc protein (Fc fusion)
chain: QVTLKESGPVLLKPTETLTLTCTVSGFSLSNPRMGVSWIRQPPGKALEWFAHIFSTDEKSLKLSLRSRLTLSKDTSKSQVVLTMTNMAPVDSATYYCARDSSNYEGYFDFWGQGTLVTVSSGGGGSGGGGSGGGGSGGGGSEVVLTQSPATLSVSPGERATLSCRASQSVRSNLAWYQQKSGQAPRLLIYGSTIRATGVPARFSGSGSGTEFTLTISSLQSEDFAVYYCQQYSDWPFTFGPGTKVDIK
notes: as for B1
In assay [1], B5 displayed a Kd of 18.8 nM, an off-rate (koff) of 0.0011 s⁻¹ and a kon of 56000 M⁻¹ s⁻¹. Moreover, the binding result in assay [2] was “no binding (tested: 1000 nM)”.

B6: 26B9.HL scFv-Fc protein (Fc fusion)
chain: EVQLVESWGVLVKPGGSLRLSCAASGFIFNNAWMSWVRQAPGKGLEWIGRIKSKSDGGTTDYAAPVKDRFTISRDDSKDTLYLQMNGLKTEDTAVYFCTTAPGGPFDYWGQGTLVTVSSGGGGSGGGGSGGGGSGGGGSDIVLTQSPLSLPVTPGEPASISCRSSQSLLHRDGFNYLDWFLQKPGQSPQLLIYLASSRASGVPDRFSGSDSGTDFTLKISRVEAEDVGVYYCMQALQTPITFGQGTRLEIK
notes: as for B1
In assay [1], B6 registered a dissociation constant Kd of 705 nM, a koff of 0.04 s⁻¹ and a kon of 57000 M⁻¹ s⁻¹. For the same molecule, the binding result in assay [2] is “no binding (tested: 1000 nM)”.

B7: 14C11.HL scFv-Fc protein (Fc fusion)
chain: QVTLKESGPVLVKPTETLTLTCTVSGFSLNNARMGVSWIRQPPGKALEWFAHIFSTDEKSFRTSLRSRLTLSKDTSKSQVVLTMTNMDPVDTATYYCARDSSNYEGYFDYWGQGILVTVSSGGGGSGGGGSGGGGSGGGGSEIVMTQSPATLSVSPGERATLSCRASQSVSNNLAWYQQKPGQAPRLLIYGASTRATGVPARFSGSDSGTEFSLTISSLQSEDFAVYFCQQYKDWPFTFGPGTKVEIK
notes: as for B1
Take B7: in assay [1], the Kd was 104 nM, the dissociation rate constant (koff) was found to be 0.0043 s⁻¹ and the kon is 42000 M⁻¹ s⁻¹. Moreover, in assay [2], the binding result is given as “no binding (tested: 1000 nM)”.

B8: 20B9.LH scFv-Fc protein (Fc fusion)
chain: EIVMTQSPATLSVSPGERATLSCRVSQSIGANLAWYQQKFGQAPRLLIYGASTRATGIPVRFSGGGSGTEFTLTISSLQSEDFAIYSCQQYIYWPFTFGPGTTVDIKGGGGSGGGGSGGGGSGGGGSQVTLKESGPVLVKPTETLTLTCTVSGFSLSNARMGVSWIRQPPGKALEWLGHIFSTDEKSYSTSLRGRITISKDTSRGLVVLTLTNMDPVDTATYYCARDSSNYEGYFDFWGPGFLVTVSS
notes: as for B3
In assay [1], B8 yielded an equilibrium dissociation constant (Kd) of 82.7 nM, a dissociation rate constant (koff) of 0.0025 s⁻¹ and an on-rate constant (kon) of 30000 M⁻¹ s⁻¹. For the same molecule, the binding result in assay [2] was “no binding (tested: 1000 nM)”.

B9: 32A10.LH scFv-Fc protein (Fc fusion)
chain: EVVMTQSPATLSVSPGERVTLSCRASQSVSSNFAWYQQRPGQAPRLLLYGATTRATGLPGRFSGSGSGTENILTISSLQSEDFAIYFCQQYKDWPFTFGPGSKVDIKGGGGSGGGGSGGGGSGGGGSQVTLKESGPVLVKPTETLTLTCTVSGFSLSNARMGVSWIRQPPGKALEWLAHIFSTDEKSIRRSLRSRLTLSKDTSKSQVVLTMTNMDPVDTATYFCARDSSNYEGYFDYWGQGTLVTVSS
notes: as for B3
In the case of B9, in assay [1], binding was characterised by a dissociation constant (Kd) of 29.8 nM, the off-rate constant (koff) was 0.0012 s⁻¹ and the kon worked out at 41000 M⁻¹ s⁻¹. The binding result in assay [2] is reported as “no binding (tested: 1000 nM)”.

B10: C6.HL scFv-Fc protein (Fc fusion)
chain: QVQLVQSGAEVKKPGSSVKVSCKASGDTFSSNAISWVRQAPGQGLEWMGVIIPIFGTADYAQKFQGRVTITADESTSTAYMELSSLRSEDTAVYYCARHTYHEYAGGYYGGAMDPWGQGTLVTVSSGGGGSGGGGSGGGGSGGGGSELQSVLTQPPSASGTPGQRVTISCSGSSSNIGSNYVYWYQQLPGTAPKILIYRNNQRPSGVPDRFSGSKSGTSASLAISGLRSEDEADYYCAAWDDNLSGWVFGTGTKLTVL
notes: as for B1
B10: in assay [1], the Kd turned out to be 1060 nM, the koff was 0.02 s⁻¹ and the on-rate (kon) was 19000 M⁻¹ s⁻¹. Further, the binding result in assay [2] is “no binding (tested: 1000 nM)”.

B11: 20B9.HL scFv-Fc protein (Fc fusion)
chain: QVTLKESGPVLVKPTETLTLTCTVSGFSLSNARMGVSWIRQPPGKALEWLGHIFSTDEKSYSTSLRGRITISKDTSRGLVVLTLTNMDPVDTATYYCARDSSNYEGYFDFWGPGFLVTVSSGGGGSGGGGSGGGGSGGGGSEIVMTQSPATLSVSPGERATLSCRVSQSIGANLAWYQQKFGQAPRLLIYGASTRATGIPVRFSGGGSGTEFTLTISSLQSEDFAIYSCQQYIYWPFTFGPGTTVDIK
notes: as for B1
In assay [1], B11 registered an equilibrium dissociation constant (Kd) of 73.8 nM, an off-rate constant (koff) of 0.0018 s⁻¹ and a kon of 24000 M⁻¹ s⁻¹. Moreover, the binding result in assay [2] is on record as “no binding (tested: 1000 nM)”.
